From patent publication US20240325561A1 (Seagen, published 2024)

T1: CD19 (UniProt P15391 20-556, limits assumed)
T1 sequence (looked up): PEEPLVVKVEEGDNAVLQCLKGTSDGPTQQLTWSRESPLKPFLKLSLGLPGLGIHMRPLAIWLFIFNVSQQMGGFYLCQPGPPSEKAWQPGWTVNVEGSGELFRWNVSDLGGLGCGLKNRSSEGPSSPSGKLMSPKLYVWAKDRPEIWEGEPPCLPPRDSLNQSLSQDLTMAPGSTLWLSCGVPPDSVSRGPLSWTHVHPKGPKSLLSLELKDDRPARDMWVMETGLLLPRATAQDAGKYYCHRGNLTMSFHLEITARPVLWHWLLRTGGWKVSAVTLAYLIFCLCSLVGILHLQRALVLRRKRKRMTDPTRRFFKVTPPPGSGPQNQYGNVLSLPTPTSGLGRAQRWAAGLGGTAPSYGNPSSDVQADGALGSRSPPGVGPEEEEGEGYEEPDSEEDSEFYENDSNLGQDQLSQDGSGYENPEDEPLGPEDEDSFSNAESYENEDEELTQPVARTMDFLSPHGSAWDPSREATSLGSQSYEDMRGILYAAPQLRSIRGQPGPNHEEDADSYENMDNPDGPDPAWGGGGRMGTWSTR

B1: hBU12-14 (antibody, V domains shown)
VH: QVQLQESGPGLVKPSQTLSLTCTVSGGSISTSGMGVGWIRQHPGKGLEWIGHIWWDDDKRYNPALKSRVTISVDTSKNQFSLKLSSVTAADTAVYYCARMELWSYYFDYWGQGTLVTVSS
VL: EIVLTQSPATLSLSPGERATLSCSASSSVSYMHWYQQKPGQAPRLLIYDTSKLASGIPARFSGSGSGTDFTLTISSLEPEDVAVYYCFQGSVYPFTFGQGTKLEIKR
modifications: antibody carries drug-linker 14 (MDpr-glucuronide-MMAE, no PEG), 8 drugs per antibody
B2: hBU12-19 (antibody, V domains shown)
VH: QVQLQESGPGLVKPSQTLSLTCTVSGGSISTSGMGVGWIRQHPGKGLEWIGHIWWDDDKRYNPALKSRVTISVDTSKNQFSLKLSSVTAADTAVYYCARMELWSYYFDYWGQGTLVTVSS
VL: EIVLTQSPATLSLSPGERATLSCSASSSVSYMHWYQQKPGQAPRLLIYDTSKLASGIPARFSGSGSGTDFTLTISSLEPEDVAVYYCFQGSVYPFTFGQGTKLEIKR
modifications: antibody carries drug-linker 19 (MDpr-Lys(PEG4[PEG4]3)-glucuronide-MMAE, branched PEG), 8 drugs per antibody
B3: hBU12-43 (antibody, V domains shown)
VH: QVQLQESGPGLVKPSQTLSLTCTVSGGSISTSGMGVGWIRQHPGKGLEWIGHIWWDDDKRYNPALKSRVTISVDTSKNQFSLKLSSVTAADTAVYYCARMELWSYYFDYWGQGTLVTVSS
VL: EIVLTQSPATLSLSPGERATLSCSASSSVSYMHWYQQKPGQAPRLLIYDTSKLASGIPARFSGSGSGTDFTLTISSLEPEDVAVYYCFQGSVYPFTFGQGTKLEIKR
modifications: antibody carries drug-linker 43 (MDpr-Lys(PEG2)-glucuronide-MMAE), 8 drugs per antibody
B4: hBU12-18 (antibody, V domains shown)
VH: QVQLQESGPGLVKPSQTLSLTCTVSGGSISTSGMGVGWIRQHPGKGLEWIGHIWWDDDKRYNPALKSRVTISVDTSKNQFSLKLSSVTAADTAVYYCARMELWSYYFDYWGQGTLVTVSS
VL: EIVLTQSPATLSLSPGERATLSCSASSSVSYMHWYQQKPGQAPRLLIYDTSKLASGIPARFSGSGSGTDFTLTISSLEPEDVAVYYCFQGSVYPFTFGQGTKLEIKR
modifications: antibody carries drug-linker 18 (MDpr-Lys(PEG8)-glucuronide-MMAE), 8 drugs per antibody
B5: hBU12-42 (antibody, V domains shown)
VH: QVQLQESGPGLVKPSQTLSLTCTVSGGSISTSGMGVGWIRQHPGKGLEWIGHIWWDDDKRYNPALKSRVTISVDTSKNQFSLKLSSVTAADTAVYYCARMELWSYYFDYWGQGTLVTVSS
VL: EIVLTQSPATLSLSPGERATLSCSASSSVSYMHWYQQKPGQAPRLLIYDTSKLASGIPARFSGSGSGTDFTLTISSLEPEDVAVYYCFQGSVYPFTFGQGTKLEIKR
modifications: antibody carries drug-linker 42 (MDpr-Lys(PEG4)-glucuronide-MMAE), 8 drugs per antibody
B6: hBU12-16 (antibody, V domains shown)
VH: QVQLQESGPGLVKPSQTLSLTCTVSGGSISTSGMGVGWIRQHPGKGLEWIGHIWWDDDKRYNPALKSRVTISVDTSKNQFSLKLSSVTAADTAVYYCARMELWSYYFDYWGQGTLVTVSS
VL: EIVLTQSPATLSLSPGERATLSCSASSSVSYMHWYQQKPGQAPRLLIYDTSKLASGIPARFSGSGSGTDFTLTISSLEPEDVAVYYCFQGSVYPFTFGQGTKLEIKR
modifications: antibody carries drug-linker 16 (MDpr-Lys(PEG24)-glucuronide-MMAE), 8 drugs per antibody
B7: hBU12-17 (antibody, V domains shown)
VH: QVQLQESGPGLVKPSQTLSLTCTVSGGSISTSGMGVGWIRQHPGKGLEWIGHIWWDDDKRYNPALKSRVTISVDTSKNQFSLKLSSVTAADTAVYYCARMELWSYYFDYWGQGTLVTVSS
VL: EIVLTQSPATLSLSPGERATLSCSASSSVSYMHWYQQKPGQAPRLLIYDTSKLASGIPARFSGSGSGTDFTLTISSLEPEDVAVYYCFQGSVYPFTFGQGTKLEIKR
modifications: antibody carries drug-linker 17 (MDpr-Lys(PEG12)-glucuronide-MMAE), 8 drugs per antibody
B8: hBU12 32-load conjugate having the -X-D moiety of MDpr-PAB(gluc)-Camptothecin (antibody, V domains shown)
VH: QVQLQESGPGLVKPSQTLSLTCTVSGGSISTSGMGVGWIRQHPGKGLEWIGHIWWDDDKRYNPALKSRVTISVDTSKNQFSLKLSSVTAADTAVYYCARMELWSYYFDYWGQGTLVTVSS
VL: EIVLTQSPATLSLSPGERATLSCSASSSVSYMHWYQQKPGQAPRLLIYDTSKLASGIPARFSGSGSGTDFTLTISSLEPEDVAVYYCFQGSVYPFTFGQGTKLEIKR
modifications: antibody carries PEGylated multiplexed scaffold C with MDpr-PAB(gluc)-Camptothecin, 32 drugs per antibody

What follows are molecules tested against T1, CD19 (assay: cell-based or functional assay).

Point of comparison: B1, “IC50, in vitro cytotoxicity, RL cells” value 61 ng/mL. Against it:
- B2 — higher, > 1000 ng/mL
- B3 — 3.8-fold higher, 229 ng/mL
- B4 — higher, > 1000 ng/mL
- B5 — higher, > 1000 ng/mL
- B6 — higher, > 1000 ng/mL
- B7 — higher, > 1000 ng/mL

Point of comparison: B6, “IC50, in vitro cytotoxicity, Ramos cells” value 4 ng/mL. Against it:
- B1 — 2-fold lower, 2 ng/mL
- B2 — 2-fold lower, 2 ng/mL
- B3 — 2-fold lower, 2 ng/mL
- B4 — 2-fold lower, 2 ng/mL
- B5 — within 1.5-fold, 3 ng/mL
- B7 — 2-fold lower, 2 ng/mL

Point of comparison: B4, “IC50, in vitro cytotoxicity, SU-DHL-4 cells” value 16 ng/mL. Against it:
- B1 — within 1.5-fold, 22 ng/mL
- B2 — higher, > 1000 ng/mL
- B3 — higher, > 1000 ng/mL
- B5 — higher, > 1000 ng/mL
- B6 — higher, > 1000 ng/mL
- B7 — higher, > 1000 ng/mL

Point of comparison: B6, “IC50, in vitro cytotoxicity, WSU-DLCL-2 cells” value 3 ng/mL. Against it:
- B1 — 1.7-fold higher, 5 ng/mL
- B2 — 82-fold higher, 247 ng/mL
- B3 — 4-fold higher, 12 ng/mL
- B4 — 70-fold higher, 211 ng/mL
- B5 — 1.7-fold higher, 5 ng/mL
- B7 — 43-fold higher, 129 ng/mL

Target: T1, CD19
Assay: cell-based or functional assay
Remark: another data set of the same source

With B8 the “fold improvement in cytotoxicity against the 8-load conjugate, Raj cells” value was greater than 5 fold.

For B8, the “fold improvement in cytotoxicity against the 8-load conjugate, Ramos cells” value was greater than 5 fold.

What follows are molecules tested against transferrin receptor (UniProt P02786) (assay: cell-based or functional assay).
Sequence of transferrin receptor (P02786 whole entry): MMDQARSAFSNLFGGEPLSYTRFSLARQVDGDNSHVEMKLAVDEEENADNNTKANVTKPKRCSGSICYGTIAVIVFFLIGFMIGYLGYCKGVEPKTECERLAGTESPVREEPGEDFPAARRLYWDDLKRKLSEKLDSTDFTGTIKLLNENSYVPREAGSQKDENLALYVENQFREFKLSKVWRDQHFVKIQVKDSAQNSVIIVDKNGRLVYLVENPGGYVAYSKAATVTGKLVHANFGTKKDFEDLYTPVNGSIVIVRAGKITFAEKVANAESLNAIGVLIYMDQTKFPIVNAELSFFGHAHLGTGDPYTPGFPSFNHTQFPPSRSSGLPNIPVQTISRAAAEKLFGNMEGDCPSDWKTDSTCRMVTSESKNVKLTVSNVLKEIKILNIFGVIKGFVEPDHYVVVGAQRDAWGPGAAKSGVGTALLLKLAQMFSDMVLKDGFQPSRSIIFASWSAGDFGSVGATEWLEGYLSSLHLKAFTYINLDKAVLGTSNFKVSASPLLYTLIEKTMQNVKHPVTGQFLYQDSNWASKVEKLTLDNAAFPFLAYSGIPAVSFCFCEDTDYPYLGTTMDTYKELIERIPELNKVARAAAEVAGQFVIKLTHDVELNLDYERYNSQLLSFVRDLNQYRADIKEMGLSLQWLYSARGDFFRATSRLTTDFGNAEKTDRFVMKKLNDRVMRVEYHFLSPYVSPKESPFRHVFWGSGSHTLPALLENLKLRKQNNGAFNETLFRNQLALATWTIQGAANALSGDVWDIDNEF

Molecule “8-load anti-transferrin receptor ADC (cOKT9) having -X-D of MDpr-PABA(gluc)-Camptothecin (antibody)” has an IC50, cytotoxicity, colorectal cell line HT-29 (TfR copy number 23K) greater than 1 µM.

“8-load anti-transferrin receptor ADC (cOKT9) having -X-D of MDpr-PABA(gluc)-Camptothecin (antibody)” showed an IC50, cytotoxicity, melanoma cell line SK-MEL-5 (TfR copy number 21K) greater than 1 µM.
